Experiments:
[1] = biological target: T1, human PD-1 (ACRO, His tag) (human, UniProt Q15116 25-167); test: ELISA, human PD-1-His coated at 1 ug/mL, anti-human IgG Fc detection, OD450
T1 construct: Bought protein; not shown: His tag
Procedure: The binding of the antibody to human PD-1 was detected by ELISA. 1 μg/mL human PD-1 (ACRO, His tag) was coated on an ELISA plate overnight and blocked. Subsequently, the plate was added with gradient dilutions of the bispecific antibody and the control antibody, incubated and washed. Then, the plate was added with HRP-labeled anti-human IgG Fc secondary antibody, incubated and washed. After TMB solution was added for color development, the OD450 absorbance value was read on a microplate reader (see Table 12). […] Subsequently, the plate was added with gradient dilutions of the sample to be tested and the control antibody, incubated and washed. Then, the plated was added with HRP-labeled anti-human IgG Fc secondary antibody, incubated and washed. After TMB solution was added for color development, the OD450 absorbance value was read on a microplate reader (see Table 13). […] (The control substances were all obtained by in-house expression and purification)

[2] = biological target: VEGF (species and construct not stated); test: cell-based or functional assay
Chain of VEGF (species and construct not stated) (P15692 whole entry): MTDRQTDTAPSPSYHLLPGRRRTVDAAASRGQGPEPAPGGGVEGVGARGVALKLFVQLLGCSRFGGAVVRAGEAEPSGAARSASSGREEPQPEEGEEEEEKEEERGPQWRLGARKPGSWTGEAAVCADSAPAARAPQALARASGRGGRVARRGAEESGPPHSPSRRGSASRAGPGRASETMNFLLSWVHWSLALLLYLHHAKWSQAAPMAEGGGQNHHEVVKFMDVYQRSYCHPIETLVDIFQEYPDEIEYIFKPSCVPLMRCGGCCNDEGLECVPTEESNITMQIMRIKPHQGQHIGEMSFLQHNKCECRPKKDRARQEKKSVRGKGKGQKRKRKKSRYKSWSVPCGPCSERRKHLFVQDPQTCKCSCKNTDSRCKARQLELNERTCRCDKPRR

[3] = biological target: T1, human PD-1 (ACRO, His tag); test: bridging ELISA: human PD-1-His coated at 1 ug/mL, antibody, then biotinylated human VEGF at 50 ng/ml and streptavidin-HRP, OD450
Procedure: The order of the binding to VEGF and PD-1 was changed for dual ELISA detection. A 96-well ELISA plate was coated with 1 μg/mL human PD-1 (ACRO, His tag) overnight, washed and blocked for 1 hour. […] TMB solution was added for color development, and the OD450 nm absorbance value was read on a microplate reader.

[4] = biological target: T2, monkey PD-1 (ACRO, His tag) (monkey, UniProt B0LAJ3 25-170); test: ELISA, monkey PD-1-His coated at 1 ug/mL, anti-human IgG Fc detection, OD450
T2 construct: Bought protein
T2 sequence (B0LAJ3 entry or part of it limits assumed, form in doubt): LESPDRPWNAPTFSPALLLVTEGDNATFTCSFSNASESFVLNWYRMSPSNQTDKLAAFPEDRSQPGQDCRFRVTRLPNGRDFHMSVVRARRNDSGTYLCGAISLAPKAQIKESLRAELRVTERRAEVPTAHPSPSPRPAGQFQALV
Procedure: The binding of candidate molecules and competitor to antigens of different species was detected by ELISA. […] The binding of antibodies to monkey PD-1 was detected by ELISA. An ELISA plate was coated with 1 μg/mL monkey PD-1 (ACRO, His tag) overnight and blocked. Subsequently, the plate was added with gradient dilutions of the sample to be tested and the control antibody, incubated and washed. Then, the plate was added with HRP-labeled anti-human IgG Fc secondary antibody, incubated and washed. After TMB solution was added for color development, the OD450 absorbance value was read on a microplate reader (see Table 15).

[5] = biological target: T3, human VEGF (ACRO, His tag) (human, UniProt P15692-4 27-191, limits assumed); test: ELISA, human VEGF-His coated at 50 ng/ml, anti-human IgG Fc detection, OD450
T3 construct: Bought protein; not shown: His tag
T3 sequence (P15692 other isoform, or with tags, fused parts or gaps limits assumed): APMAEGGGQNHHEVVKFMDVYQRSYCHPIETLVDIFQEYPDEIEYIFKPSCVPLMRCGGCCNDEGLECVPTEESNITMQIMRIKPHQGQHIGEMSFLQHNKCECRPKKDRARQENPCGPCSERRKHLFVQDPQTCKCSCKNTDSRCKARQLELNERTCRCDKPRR

T1 sequence (Q15116 25-167 limits assumed): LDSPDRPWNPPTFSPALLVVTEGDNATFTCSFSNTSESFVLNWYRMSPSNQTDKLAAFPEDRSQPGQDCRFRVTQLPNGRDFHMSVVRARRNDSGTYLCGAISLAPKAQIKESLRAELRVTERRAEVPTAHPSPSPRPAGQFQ

B1: #16 bispecific antibody targeting PD-1 and VEGF (bispecific antibody, human IgG1, kappa)
heavy: QVQLVQSGVEVKKPGASVKVSCKASGYTFTNYYMYWVRQAPGQGLEWMGGINPSNGGTNFNEKFKNRVTLTTDSSTTTAYMELKSLQFDDTAVYYCARRDYRFDMGFDYWGQGTTVTVSSASTKGPSVFPLAPSSKSTSGGTAALGCLVKDYFPEPVTVSWNSGALTSGVHTFPAVLQSSGLYSLSSVVTVPSSSLGTQTYICNVNHKPSNTKVDKKVEPKSCDKTHTCPPCPAPEAEGAPSVFLFPPKPKDTLMISRTPEVTCVVVDVSHEDPEVKFNWYVDGVEVHNAKTKPREEQYNSTYRVVSVLTVLHQDWLNGKEYKCKVSNKALPSSIEKTISKAKGQPREPQVYTLPPSREEMTKNQVSLTCLVKGFYPSDIAVEWESNGQPENNYKTTPPVLDSDGSFFLYSKLTVDKSRWQQGNVFSCSVMHEALHNHYTQKSLSLSPGEVQLLESGGGLVQPGGSLRLSCAASGFTFSTSTMSWYRQAPGKERELVSFITSAGATTYYADSVKGRFTMSRDNSKNTVYLQMNSLRAEDTAVYYCRALVTLWNVYWGQGTLVTVSS
light: EIVLTQSPATLSLSPGERATLSCRASKGVSTSGYSYLHWYQQKPGQAPRLLIYLASYLESGVPARFSGSGSGTDFTLTISSLEPEDFAVYYCQHSRDLPLTFGGGTKVEIKRTVAAPSVFIFPPSDEQLKSGTASVVCLLNNFYPREAKVQWKVDNALQSGNSQESVTEQDSKDSTYSLSSTLTLSKADYEKHKVYACEVTHQGLSSPVTKSFNRGEC
notes: Valence is 2+2
- TOP OD [1]: 2.58 OD
- maximum inhibition rate of HUVEC proliferation [2]: ~60%
- TOP OD [3]: 3.65 OD
- TOP OD [4]: 3.38 OD
- TOP OD [5]: 1.75 OD

B2: Strain #48 VHH (Fc fusion)
chain: EVQLLESGGGLVQPGGSLRLSCAASGFTFSTSTMSWYRQAPGKERELVSFITSAGATTYYADSVKGRFTMSRDNSKNTVYLQMNSLRAEDTAVYYCRALVTLWNVYWGQGTLVTVSS
notes: Humanized variant of #6 (Q1E+Q5L+A49S+N58Y+D65G+D74S+V(82B)S+K83R+P84A+M89V+Q108L, Kabat); not shown: A printed molecular weight of 76.46 kD and detection by anti-human IgG Fc p
- TOP OD [5]: 3.09 OD
